The subject of assay [1] is splenocytes. The experiment in a line: Bystander tolerance induction by prophylactic SLIT in mice, IP sensitization with NTGA 86/51 together with OVA. The class given is in vivo. Conditions: for NTGA 86/51 specific in vitro proliferation of splenocytes vs buffer treated mice: FIG. 4. The source says: Bystander tolerance induction by prophylactic SLIT treatment with A0086 (FIG. 4). The ability of NTGA 86/51 to induce bystander tolerance, i.e. to induce tolerance against a non-related protein was investigated by SLIT treating the mice for two weeks with NTGA 86/51 followed by an IP sensitization with NTGA 86/51 together with the unrelated protein ovalbumin (OVA). Following this splenocytes were stimulated in vitro either with NTGA 86/51to confirm the ability of this protein to induce tolerance towards itself, or with OVA to investigate if NTGA 86/51 can induce bystander tolerance towards an unrelated protein.

For assay [2], the system named is splenocytes. The assay is described as follows: Prophylactic SLIT tolerance induction in mice, splenocyte proliferation. It counts as in vivo, BALB/c mice. Conditions: prophylactic SLIT two weeks. The source says:
Then the tolerance induction of NTGA 86/51 was investigated in a prophylactic mice model using sublingual administration (FIG. 3)
The ability of NTGA 86/51 and NTGA 6 to induce prophylactic tolerance was investigated by SLIT treating naive BALB/c mice with NTGA 86/51 or NTGA 6 for two weeks (Monday-Friday) followed by one Phl p extract sensitization or sensitization to the immunogen itself (NTGA 86/51 or NTGA 6) as described above. Eleven days after the sensitization, splenocytes were harvested and stimulated in vitro with NTGA 86/51 as well as Phl p extract.

Assay [3] concerns splenocytes. The experiment in a line: Sensitization pattern: in vitro proliferation (3H-thymidine) of splenocytes of mice sensitized to Phl p extract. It counts as cell-based, BALB/c mice. Conditions: mice sensitized IP with Phl p extract; 6 days stimulation. The text has this: Initially, the sensitization pattern of an immunogen of the invention (NTGA 86/51) was investigated in BALB/c mice sensitized to Phl p extract (FIG. 2). For the purposes of these studies, the immunogen were expressed in E. Coli using standard expression protocols.
Mice were sensitized by one intraperitoneal injection with Phl p extract adsorbed to aluminium hydroxide. Eleven days later the mice were euthanized and splenocytes were stimulated in vitro with Phl p extract, Phl p 1, Phl p 5, NTGA 86/51. The cells were incubated for 6 days at 37° C. under 5% CO2 and incorporated 3H-thymidine was counted and used as a measure for T cell proliferation.

In assay [4] the test system is cultured PBMCs of the allergic donors. The experiment in a line: ELISPOT of IL-5 or IFNg production by cultured PBMCs of TG allergic donors in response to peptide. The class given is cell-based, human. The settings on record: NTGA number given = criterion met; TG allergic donors n=20. Put shortly: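 Counts of responding donors among 20 TG-allergic subjects, judged by ELISPOT for IL-5 or IFNg (positive: minimum 20 SFCs/10^6 PBMCs, stimulation index 2 or more, P .05). Cells were pre-expanded with TG pollen extract or peptide pool, then stimulated at 1×10^5/well with 10 μg/mL peptide.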

B1: ovalbumin (protein, UniProt P01012 2-386, looked up)
Ovalbumin: GSIGAASMEFCFDVFKELKVHHANENIFYCPIAIMSALAMVYLGAKDSTRTQINKVVRFDKLPGFGDSIEAQCGTSVNVHSSLRDILNQITKPNDVYSFSLASRLYAEERYPILPEYLQCVKELYRGGLEPINFQTAADQARELINSWVESQTNGIIRNVLQPSSVDSQTAMVLVNAIVFKGLWEKAFKDEDTQAMPFRVTEQESKPVQMMYQIGLFRVASMASEKMKILELPFASGTMSMLVLLPDEVSGLEQLESIINFEKLTEWTSSNVMEERKIKVYLPRMKMEEKYNLTSVLMAMGITDVFSSSANLSGISSAESLKISQAVHAAHAEINEAGREVVGSAEAGVDAASVSEEFRADHPFLFCIKHIATNAVLFFGRCVSP
notes: unrelated protein ovalbumin used as model allergen
For B1, the “NTGA 86/51 specific in vitro proliferation of splenocytes vs buffer treated mice” value in the assay on splenocytes [1] is reported as “able to downregulate”.

B2: NTGA 86/51: Phl p wild type full length protein from which PG+ peptides of NTGA's 86 and 51 derive (protein)
chain: MSPAEPTREESVYMAKLAEQAERYEEMVEFMERVAKATGGAGPGEELSVEERNLLSVAYKNVIGARRASWRIISSIEQKEEGRGNDAHATTIRSYRSKIEAELAKICDGILALLDSHLVPSAGAAESKVFYLKMKGDYHRYLAEFKSGAERKEAAESTMNSYKAAQDIALADLAPTHPIRLGLALNFSVFYYEILNSPDRACNLAKQAFDEAISELDSLGEESYKDSTLIMQLLRDNLTLWTSDTNEDGGDEIKEAPAPKESGD
modifications: Phleum Pratense
notes: Phl p wild type full length protein from which PG+ peptides of NTGA's 86 and 51 derive
With B2, the “tolerance towards the immunogen itself (proliferation of splenocytes vs buffer (sham) treated mice)” value in the assay on splenocytes [2] (FIG. 3A / 3C) is on record as “capable of inducing tolerance towards the immunogen itself”. Also, the “tolerance towards Phl p extract (proliferation of splenocytes vs buffer (sham) treated mice)” value in the assay on splenocytes [2] (FIG. 3B) is “capable of inducing tolerance”. In the assay on splenocytes [3], the “in vitro T-cell response (splenocyte proliferation) compared to the response to Phl p 5” value is on record as “much weaker” and the “in vitro T-cell response (splenocyte proliferation) compared to the response towards the Phl p extract” value was “much weaker”. Besides, the “NTGA's containing at least one T cell epitope, Th+ (Col 2)” value in assay [4] is 86/51. The “NTGA 86/51 specific in vitro proliferation of splenocytes vs buffer treated mice” value in the assay on splenocytes [1] is “reduced proliferation”. Besides, in the assay on splenocytes [1] (FIG. 4B), the “OVA specific in vitro proliferation of splenocytes vs buffer treated mice (bystander tolerance)” value was “decreased”.

The values are drawn from patent publication US20160287696A1, “PAN POLLEN IMMUNOGENS AND METHODS AND USES FOR IMMUNE RESPONSE MODULATION” (LA JOLLA INSTITUTE FOR ALLERGY AND IMMUNOLOGY, priority 2013, published 2016).
